Values quoted from earlier work in paper PMC6538672.

Target: RMI1:RMI2 (Homo sapiens) (UniProt Q9H9A7)
UniProt Q9H9A7, sequence (Q9H9A7 whole entry, chain 1 of 2): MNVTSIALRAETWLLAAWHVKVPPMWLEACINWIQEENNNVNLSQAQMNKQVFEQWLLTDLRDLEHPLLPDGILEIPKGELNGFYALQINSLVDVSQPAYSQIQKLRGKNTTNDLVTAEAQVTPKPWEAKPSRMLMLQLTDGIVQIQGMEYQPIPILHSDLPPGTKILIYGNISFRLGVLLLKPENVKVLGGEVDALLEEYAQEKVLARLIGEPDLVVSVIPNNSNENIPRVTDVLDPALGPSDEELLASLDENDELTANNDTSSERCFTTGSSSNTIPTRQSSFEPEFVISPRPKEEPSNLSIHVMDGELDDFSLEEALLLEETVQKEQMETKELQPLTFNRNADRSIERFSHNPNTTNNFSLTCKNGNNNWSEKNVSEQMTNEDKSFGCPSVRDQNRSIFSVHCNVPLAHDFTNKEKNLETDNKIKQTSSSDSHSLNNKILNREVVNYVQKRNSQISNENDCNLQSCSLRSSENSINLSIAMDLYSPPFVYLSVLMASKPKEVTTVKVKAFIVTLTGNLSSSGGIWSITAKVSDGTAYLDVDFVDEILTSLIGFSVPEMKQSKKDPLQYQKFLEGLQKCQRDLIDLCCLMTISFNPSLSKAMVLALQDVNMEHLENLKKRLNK
UniProt Q9H9A7, sequence (Q96E14 2-147, chain 2 of 2, further chain): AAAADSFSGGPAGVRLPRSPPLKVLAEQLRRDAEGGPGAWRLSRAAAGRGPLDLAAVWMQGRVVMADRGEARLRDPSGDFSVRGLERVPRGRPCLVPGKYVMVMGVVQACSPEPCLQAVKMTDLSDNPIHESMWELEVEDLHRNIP

- Kd: 5 nM
Substance: FANCM MM2 (from UniProt Q8IYD8)
